Assay results from US20040228866A1 (LUDWIG INSTITUTE FOR CANCER RESEARCH, published 2004).

B1: ASPP2 (1-1128) (other)
chain: MMPMFLTVYLSNNEQHFTEVPVTPETICRDVVDLCKEPGESDCHLAEVWCGSERPVADNERMFDVLQRFGSQRNEVRFFLRHERPPGRDIVSGPRSQDPSLKRNGVKVPGEYRRKENGVNSPRMDLTLAELQEMASRQQQQIEAQQQLLATKEQRLKFLKQQDQRQQQQVAEQEKLKRLKEIAENQEAKLKKVRALKGHVEQKRLSNGKLVEEIEQMNNLFQQKQRELVLAVSKVEELTRQLEMLKNGRIDSHHDNQSAVAELDRLYKELQLRNKLNQEQNAKLQQQRECLNKRNSEVAVMDKRVNELRDRLWKKKAALQQKENLPVSSDGNLPQQAASAPSRVAAVGPYIQSSTMPRMPSRPELLVKPALPDGSLVIQASEGPMKIQTLPNMRSGAASQTKGSKIHPVGPDWSPSNADLFPSQGSASVPQSTGNALDQVDDGEVPLREKEKKVRPFSMFDAVDQSNAPPSFGTLRKNQSSEDILRDAQVANKNVAKVPPPVPTKPKQINLPYFGQTNQPPSDIKPDGSSQQLSTVVPSMGTKPKPAGQQPRVLLSPSIPSVGQDQTLSPGSKQESPPAAAVRPFTPQPSKDTLLPPFRKPQTVAASSIYSMYTQQQAPGKNFQQAVQSALTKTHTRGPHFSSVYGKPVIAAAQNQQQHPENIYSNSQGKPGSPEPETEPVSSVQENHENERIPRPLSPTKLLPFLSNPYRNQSDADLEALRKKLSNAPRPLKKRSSITEPEGPNGPNIQKLLYQRTTIAAMETISVPSYPSKSASVTASSESPVEIQNPYLHVEPEKEVVSLVPESLSPEDVGNASTENSDMPAPSPGLDYEPEGVPDNSPNLQNNPEEPNPEAPHVLDVYLEEYPPYPPPPYPSGEPEGPGEDSVSMRPPEITGQVSLPPGKRTNLRKTGSERIAHGMRVKFNPLALLLDSSLEGEFDLVQRIIYEVDDPSLPNDEGITALHNAVCAGHTEIVKFLVQFGVNVNAADSDGWTPLHCAASCNNVQVCKFLVESGAAVFAMTYSDMQTAADKCEEMEEGYTQCSQFLYGVQEKMGIMNKGVIYALWDYEPQNDDELPMKEGDCMTIIHREDEDEIEWWWARLNDKEGYVPRNLLGLYPRIKPRQRSLA
B2: Apoptosis Stimulating Protein 1 (ASPP1) (other)
chain: MMPMILTVFLSNNEQILTEVPITPETTCRDVVEFCKEPGEGSCHLAEVWRGNERPIPFDHMMYEHLQIWGPRREEVKFFLRHEDSPTENSEQGGRQTQEQRTQRNVINVPGDKRTEYGVGNPRVELTLSELQDMAARQQQQIENQQQMLVAKEQRLHFLKQQERRQQQSISENEKLQKLKERVEAQENKLKKIRAMRGQVDYSKIMNGNLSAEIERFSAMFQEKKQEVQTAILRVDQLSQQLEDLKKGKLNGFQSYNGKLTGPAAVELKRLYQELQIRNQLNQEQNSKLQQQKELLNKRNMEVAMMDKRISELRERLYGKKIQLNRVNGTSSPQSPLSTSGRVAAVGPYIQVPSAGSFPVLGDPIKPQSLSIASNAAHGRSKSANDGNWPTLKQNSSSSVKPVQVAGADWKDPSVEGSVKQGTVSSQPVPFSALGPTEKPGIEIGKVPPPIPGVGKQLPPSYGTYPSPTPLGPGSTSSLERRKEGSLPRPSAGLPSRQRPTLLPATGSTPQPGSSQQIQQRISVPPSPTYPPAGPPAFPAGDSKPELPLTVAIRPFLADKGSRPQSPRKGPQTVNSSSIYSMYLQQATPPKNYQPAAHSALNKSVKAVYGKPVLPSGSTSPSPLPFLHGSLSTGTPQPQPPSESTEKEPEQDGPAAPADGSTVESLPRPLSPTKLTPIVHSPLRYQSDADLEALRRKLANAPRPLKKRSSITEPEGPGGPNIQKLLYQRFNTLAGGMEGTPFYQPSPSQDFMGTLADVDNGNTNANGNLEELPPAQPTAPLPAEPAPSSDANDNELPSPEPEELICPQTTHQTAEPAEDNNNNVATVPTTEQIPSPVAEAPSPGEEQVPPAPLPPASHPPATSTNKRTNLKKPNSERTGHGLRVRFNPLALLLDASLEGEFDLVQRIIYEVEDPSKPNDEGITPLHNAVCAGHHHIVKFLLDFGVNVNAADSDGWTPLHCAASCNSVHLCKQLVESGAAIFASTISDIETAADKCEEMEEGYIQCSQFLYGVQEKLGVMNKGVAYALWDYEAQNSDELSFHEGDALTILRRKDESETEWWWARLGDREGYVPKNLLGLYPRIKPRQRTLA

What was measured:
p53 (wild type) = p53 (wild type) (human, UniProt P04637 1-393); assay: cell-based or functional assay
p63γ = biological target: T1, p63γ (UniProt Q9H3D4-5 40-487, limits assumed); assay: cell-based or functional assay
T1 sequence (looked up): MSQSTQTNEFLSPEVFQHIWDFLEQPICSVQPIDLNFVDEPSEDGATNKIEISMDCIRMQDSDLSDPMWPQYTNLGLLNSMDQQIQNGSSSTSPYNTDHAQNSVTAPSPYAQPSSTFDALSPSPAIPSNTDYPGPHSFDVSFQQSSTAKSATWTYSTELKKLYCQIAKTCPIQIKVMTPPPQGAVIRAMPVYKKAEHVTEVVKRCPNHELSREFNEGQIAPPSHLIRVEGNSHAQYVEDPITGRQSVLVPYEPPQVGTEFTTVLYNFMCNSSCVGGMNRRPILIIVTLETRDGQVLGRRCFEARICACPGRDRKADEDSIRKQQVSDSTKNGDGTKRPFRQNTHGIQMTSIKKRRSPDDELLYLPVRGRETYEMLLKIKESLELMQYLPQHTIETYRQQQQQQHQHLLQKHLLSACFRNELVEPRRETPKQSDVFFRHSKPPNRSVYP

Sequence of p53 (wild type) (P04637 whole entry): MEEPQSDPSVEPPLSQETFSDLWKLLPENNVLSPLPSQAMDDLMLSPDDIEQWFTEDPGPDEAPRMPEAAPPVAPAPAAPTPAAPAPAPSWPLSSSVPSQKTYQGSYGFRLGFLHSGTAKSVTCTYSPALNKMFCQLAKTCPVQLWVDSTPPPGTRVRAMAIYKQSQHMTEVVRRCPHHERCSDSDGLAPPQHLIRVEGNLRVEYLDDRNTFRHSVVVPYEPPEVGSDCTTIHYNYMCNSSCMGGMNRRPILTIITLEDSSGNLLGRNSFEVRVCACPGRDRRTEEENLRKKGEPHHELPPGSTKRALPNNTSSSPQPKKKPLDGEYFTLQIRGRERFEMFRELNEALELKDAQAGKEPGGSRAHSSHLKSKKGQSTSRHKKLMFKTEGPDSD

Binder	transactivation function on the Bax promoter (Bax-luc reporter) (p53 (wild type)) [fold]	transactivation function on the Bax promoter (Bax-luc reporter) (p63γ) [fold]
B1	20	7
B2	~6	4
